Values joined by “and” are separate entries in the source; they are usually repeats but may differ in a detail not shown here. Identical values can stand only once. Like-named read-outs stand apart in the source and are kept apart here.
Key:
[1] = cited from earlier work
amyloid-beta (Abeta) = molecular target: T1, amyloid-beta (Abeta) (Homo sapiens, UniProt P05067); experiment: In vitro ligand binding ELISA, immobilized amyloid-beta; conditions: ligand 5 micrograms per well; fusion protein at increasing dilutions, 37° C. one hour
T1 construct: Amyloid Beta (1-40) from Biosource; purchased Biosource
Procedure: (§1) For example, the RAGE fusion protein may be used in a binding assay to identify potential RAGE ligands. In one example embodiment of such a binding assay, a known RAGE ligand may coated onto a solid substrate (e.g., Maxisorb plates) at a concentration of about 5 micrograms per well, where each well contains a total volume of about 100 microliters (4). The plates may be incubated at 4° C. overnight to allow the ligand to absorb or bind to the substrate. Alternatively, shorter incubation periods at higher temperature (e.g., room temperature) may be used. […] The RAGE fusion protein bound to the immobilized ligand may be detected in a variety of ways. […] The bound complex may be detected by adding the alkaline phosphatase substrate, para-nitrophenylphosphate (PNPP), and measuring conversion of PNPP to para-nitrophenol (PNP) as an increase in absorbance at 405 nm. […] In the absence of ligand (i.e., coating with only BSA) there was no increase in absorbance. […] Binding was detected by the addition of an immunodetection complex containing a monoclonal mouse anti-human IgG1 diluted 1:11,000 to a final assay concentration (FAC) of 21 ng/100 μL, a biotinylated goat anti-mouse IgG diluted 1:500, to a FAC of […], and an avidin-linked alkaline phosphatase. […]

amphoterin (Ampho) = molecular target: T2, amphoterin (Ampho) (Homo sapiens, UniProt P09429); experiment: In vitro ligand binding ELISA, immobilized amphoterin; conditions: ligand 5 micrograms per well; fusion protein at increasing dilutions, 37° C. one hour
T2 sequence (P09429 1-215): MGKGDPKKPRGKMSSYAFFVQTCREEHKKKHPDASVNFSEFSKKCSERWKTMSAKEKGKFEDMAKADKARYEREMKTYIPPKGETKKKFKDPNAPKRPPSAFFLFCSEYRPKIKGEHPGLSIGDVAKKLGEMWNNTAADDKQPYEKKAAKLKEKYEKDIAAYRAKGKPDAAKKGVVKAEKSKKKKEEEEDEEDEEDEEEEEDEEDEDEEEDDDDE
Procedure: as §1

S100b (S100) = molecular target: T3, S100b (S100) (Homo sapiens, UniProt P04271); experiment: In vitro ligand binding ELISA, immobilized S100b; conditions: ligand 5 micrograms per well; fusion protein at increasing dilutions, 37° C. one hour
T3 sequence (P04271 1-92): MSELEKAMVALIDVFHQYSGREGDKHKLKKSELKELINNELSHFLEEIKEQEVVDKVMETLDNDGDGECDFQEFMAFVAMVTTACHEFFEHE
Procedure: as §1

[2] = test system: recurrent diabetes in syngeneic NOD transplant model; experiment: Syngeneic islet transplantation in NOD mice; format: in vivo
Text: Spontaneous autoimmune non-obese diabetic mice (NOD/LtJ) (12-25 weeks old) served as recipients for islet cells, while young pre-diabetic NOD/LtJ mice (6-7 weeks old) served as donors in syngeneic islet transplantation. Islets for transplantation were isolated as described above in Section A (Allogeneic Islet Transplantation). Diabetic NOD/LtJ mice received islet grafts within 2 days of the diagnosis of diabetes. 500-600 freshly isolated islets (approximately 550 islet equivalents) from donor mice were picked up with an infusion set and transplanted into the subcapular space of the right kidney. Test compounds were administered as soon as the islets were transplanted and continued for approximately 8 weeks. […] Islet graft function was monitored by serial blood glucose measurements daily for the first 2 weeks after islet transplantation, followed by every other day thereafter. Reversal of diabetes was defined as blood glucose less than 200 mg/dl on two consecutive measurements. Percentage graft loss was determined when blood glucose exceeded 250 mg/dl on two consecutive measurements.

[3] = normal and diabetic rats; cited from earlier work
mouse model of AD = experiment: APP transgenic mouse model of AD; format: in vivo, mice; conditions: treated for 3 months, qod i.p.; versus vehicle and human IgG1
Procedure: Experiments were performed to evaluate whether TTP-4000 could affect amyloid formation and cognitive dysfunction in a mouse model of AD. The experiments utilized transgenic mice expressing the human Swedish mutant amyloid precursor protein (APP) under the control of the PDGF-B chain promoter. Over time, these mice generate high levels of the RAGE ligand, amyloid beta (Aβ).
The APP mice (male) used in this experiment were designed by microinjection of the human APP gene (with the Swedish and London mutations) into mouse eggs under the control of the platelet-derived growth factor B (PDGF-B) chain gene promoter. The mice were generated on a C57BL/6 background and were developed by Molecular Therapeutics Inc. Animals were fed ad libitum and maintained by brother sister mating. The mice generated from this construct develop amyloid deposits starting at 6 months of age. Animals were aged for 6 months and then maintained for 90 days and sacrificed for amyloid quantification.
APP transgenic mice were administered vehicle or TTP4000 every other day [qod (i.p.)] for 90 days starting at 6 months of age. At the end of the experiment, animals were sacrificed and examined for Aβ plaque burden in the brain (i.e., plaque number). A 6-month control APP group was used to determine the baseline of amyloid deposits. In addition, at the end of the study, the animals were subjected to behavioral (Morris water maze) analysis. The investigators were blinded to the study compounds. Samples were given to the mice at 0.25 ml/mouse/every other day.
For histological examination, the animals were anesthetized with an intraperitoneal injection (IP) of sodium pentobarbital (50 mg/kg). The animals were transcardially perfused with 4° C., phosphate-buffered saline (PBS) followed by 4% paraformaldehyde. The brains were removed and placed in 4% paraformaldehyde over night. The brains were processed to paraffin and embedded. Ten serial 30-μm thick sections through the brain were obtained. Sections were subjected to primary antibody overnight at 4° C. (Aβ peptide antibody) in order to detect the amyloid deposits in the brain of the transgenic animals (Guo et al., J. Neurosci., 22:5900-5909 (2002)). Sections were washed in Tris-buffered saline (TBS) and secondary antibody was added and incubated for 1 hour at room temperature. After washing, the sections were incubated as instructed in the Vector ABC Elite kit (Vector Laboratories) and stained with […] (DAB). The reactions were stopped in water and cover-slipped after treatment with xylene. The amyloid area in each section was determined with a computer-assisted image analysis system, consisting of a Power Macintosh computer equipped with a Quick Capture frame grabber card, Hitachi CCD camera mounted on an Olympus microscope and camera stand. NIH Image Analysis Software, v. 1.55 was used. The images were captured and the total area of amyloid was determined over the ten sections. A single operator blinded to treatment status performed all measurements. Summing the amyloid volumes of the sections and dividing by the total number of sections was done to calculate the amyloid volume.
For quantitative analysis, an enzyme-linked immunosorbent assay (ELISA) was used to measure the levels of human total Aβ, Aβtotal and Aβ1-42 in the brains of APP transgenic mice (Biosource International, Camarillo, Calif.). Aβtotal and Aβ1-42 were extracted from mouse brains by guanidine hydrochloride and quantified as described by the manufacturer. […]

[4] = 300 ug LD + 100 ug qod ip, syngeneic islets in NOD mice

T1 sequence (P05067 672-711 limits assumed): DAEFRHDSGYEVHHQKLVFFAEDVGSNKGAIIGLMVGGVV

Molecule: human sRAGE: human soluble RAGE (V, C1 and C2 domains)
- half-life ([1]; assessed by retention of immunoreactivity sRAGE): less than 2 hours
- half-life in plasma [1]: about 2 hours

Molecule: sRAGE: soluble RAGE: the RAGE protein that does not include the transmembrane region or the cytoplasmic tail; species not stated at the place [reference compound]
- half-life in plasma [1]: only a few hours

B1: TTP-3000: three domain RAGE fusion protein: human RAGE N-terminal sequence (to position 136) linked to human IgG Fc (γ1) without hinge; SEQ ID NO: 35-37, 57 (protein)
chain: QNITARIGEPLVLKCKGAPKKPPQRLEWKLNTGRTEAWKVLSPQGGGPWDSVARVLPNGSLFLPAVGIQDEGIFRCQAMNRNGKETKSNYRVRVYQIPGKPEIVDSASELTAGPSVFLFPPKPKDTLMISRTPEVTCVVVDVSHEDPEVKFNWYVDGVEVHNAKTKPREEQYNSTYRVVSVLTVLHQDWLNGKEYKCKVSNKALPAPIEKTISKAKGQPREPQVYTLPPSRDELTKNQVSLTCLVKGFYPSDIAVEWESNGQPENNYKTTPPVLDSDGSFFLYSKLTVDKSRWQQGNVFSCSVMHEALHNHYTQKSLSLSPGK
modifications: non-natural residues
- binding to immobilized amyloid-beta (increase in absorbance at 405 nm) (amyloid-beta (Abeta)): specifically interact
- binding to immobilized amphoterin (increase in absorbance at 405 nm) (amphoterin (Ampho)): specifically interact
- binding to immobilized S100b (increase in absorbance at 405 nm) (S100b (S100)): specifically interact
- day of graft loss for each animal [2, 4]: 42 days and 41 days and 34 days and 32 days and 30 days and 44 days and 46 days
- day of graft loss, Mean [2, 4]: 38.43 days
- time before detection of graft failure, in words ([2]; versus animals not treated at all): increase in the time before detection of graft failure

B2: rodent sRAGE: rodent soluble RAGE (protein, UniProt Q62151 23-340, looked up)
extracellular domain: GQNITARIGEPLVLSCKGAPKKPPQQLEWKLNTGRTEAWKVLSPQGGPWDSVARILPNGSLLLPATGIVDEGTFRCRATNRRGKEVKSNYRVRVYQIPGKPEIVDPASELTASVPNKVGTCVSEGSYPAGTLSWHLDGKLLIPDGKETLVKEETRRHPETGLFTLRSELTVIPTQGGTHPTFSCSFSLGLPRRRPLNTAPIQLRVREPGPPEGIQLLVEPEGGIVAPGGTVTLTCAISAQPPPQVHWIKDGAPLPLAPSPVLLLPEVGHEDEGTYSCVATHPSHGPQESPPVSIRVTETGDEGPAEGSVGESGLGTLA
modifications: extracellular domain
notes: rodent soluble RAGE
- half-life [3]: approximately 20 hours

B3: mouse sRAGE: mouse soluble RAGE used as comparator in the AD mouse model (protein, UniProt Q62151 23-340, looked up)
extracellular domain: B2 extracellular domain
modifications: extracellular domain
notes: mouse soluble RAGE used as comparator in the AD mouse model
- Aβ plaques in the brain (mouse model of AD): fewer Aβ plaques
- cognitive dysfunction (Morris water maze) (mouse model of AD): less cognitive dysfunction

Reference: patent US8344120B2, “Nucleic acid molecules encoding rage fusion proteins” (TransTech Pharma, Inc., priority 2006, dated 2013)
